Measurements reported in patent US8409836B2, “Treatment of cellulosic material and enzymes useful therein” (Roal Oy, priority 2005, dated 2013).

Tests used:
[1] = Hydrolysis with endoglucanase preparations, spruce; type: biochemical; conditions: 48 h, 45° C., pH 5.0
Procedure: (§1) The preparations containing the endoglucanases were compared in hydrolysis studies mixed with the purified CBH/Cel7 and CBH/Cel6 enzymes on several pre-treated substrates. Culture filtrates of T. reesei, containing different cloned endoglucanase enzymes were obtained as described in Example 19. The enzymes were enriched by removing thermolabile proteins from the mixtures by a heat treatment (60° C., 2 h, pH 5) and the supernatant was used for the hydrolysis studies. In addition, pure T. reesei cellulases (purified as described by Suurnäkki et al., 2000) were used in the enzyme mixtures. The endoglucanases used in the experiment were:
Washed steam pre-treated spruce fibre (impregnation with 3% SO2 for 20 min, followed by steam pre-treatment at 215° C. for 5 min), dry matter 25.9% (SPRUCE).
(§2) The endoglucanases to be studied (dosage 840 nkat/g dry matter, based on endoglucanase activity against HEC according to IUPAC, 1987) were used either with cellobiohydrolases of T. reesei (CBHI/Cel7A, 8.1 mg/g d.m. and CBHII/Cel6A, 2.0 mg/g d.m.) or with Thermoascus aurantiacus Cel7A with genetically attached CBD of T. reesei (10.1 mg/g d.m.). Purified (Suurnäkki et al., 2000) EGI (Cel7B) and EGII (Cel5A) of T. reesei were also included in the experiments for comparison. All mixtures were supplemented with additional β-glucosidase from Novozym 188 (to make the total β-glucosidase dosage 560 nkat/g d.w., the relatively high dosage was used to compensate the differences in the background activities of the different EG preparations). Triplicate tubes were incubated in mixing at 45° C. for 48 h and reference samples with inactivated enzymes and corresponding substrates were prepared. The release of hydrolysis products was measured as reducing sugars with DNS method using glucose as standard (Table 31).

[2] = Hydrolysis with endoglucanase preparations, corn stover; type: biochemical; conditions: 48 h, 45° C., pH 5.0
Procedure: as §1
Steam exploded corn stover fibre (steam pre-treatment at 210° C. for 5 min), dry matter 31.0% (SECS).
as §2

[3] = Isoelectric focusing (PhastSystem), pI of purified protein; type: physicochemical; conditions: IEF gel
Procedure: The sample was dissolved in water and applied to a Superdex 75 HR 10/30 gel filtration column equilibrated with 20 mM sodium phosphate pH 6.0, containing 0.15 M NaCl. Fractions were collected and those containing endoglucanase activity were combined. The protein eluate was judged to be pure by SDS-polyacrylamide gel electrophoresis and the molecular mass was evaluated on the basis of molecular mass standards (prestained SDS-PAGE standards, Broad Range, Bio-Rad) to be 54 kDa. The pI of the purified protein, designated as Ct EG—54 was determined with PhastSystem (Pharmacia) to be ca 5.5.
The sample was applied to a Sephacryl S-100 HR 26/60 gel filtration column equilibrated with 50 mM sodium acetate buffer pH 5.0, containing 0.05 M NaCl. The protein fraction containing endoglucanase activity was eluted from the column with a retention volume corresponding to a molecular weight of 16 kDa. Collected fractions were combined, concentrated and gel filtration was repeated. The protein eluate was judged to be pure by SDS-polyacryl amide gel electrophoresis and the molecular weight was evaluated to be 28 kDa. The pI of the purified protein, designated as Ta EG—28, was determined in an IEF gel (PhastSystem, Pharmacia) to be about 3.5. The specific activity of Ta EG—28 at 50° C. was determined to be 4290 nkat/mg (procedure of IUPAC 1987, using CMC as substrate).
The active material from the anion exchange chromatography was applied to a Sephacryl S-300 HR 26/60 column equilibrated with 20 mM sodium phosphate pH 6.5, containing 0.15 M NaCl. The protein with β-glucosidase activity was eluted with a retention volume corresponding to a molecular weight of 243 kDa. The protein was judged to be pure by SDS-polyacrylamide gel electrophoresis and the molecular weight was evaluated to be 101 kDa. The pI of the purified protein, designated as At βG—101, was determined in an IEF gel (PhastSystem, Pharmacia) to be in the area of 5.6-4.9. The specific activity of At βG—101 at 50° C. was determined to be 1100 nkat/mg (using 4-nitrophenyl-β-D-glucopyranoside as substrate, Bailey and Linko, 1990).
The active material from the cation exchange chromatography was applied to a Sephacryl S-300 HR 26/60 column equilibrated with 20 mM sodium phosphate pH 7.0, containing 0.15 M NaCl. The protein with β-glucosidase activity was eluted with a retention volume corresponding to a molecular weight of 294 kDa. […] The protein was judged to be pure by SDS-polyacrylamide gel electrophoresis and the molecular weight was evaluated to be 81 kDa, representing most likely the monomeric form of the protein. […] The specific activity of the purified protein, designated as Ta βG—81, at 50° C. was determined to be 600 nkat/mg using 4-nitrophenyl-β-D-glucopyranoside as substrate (Bailey and Linko, 1990). […]

[4] = Hydrolysis with CBH enzyme mixtures, spruce; type: biochemical; conditions: additional enzymes EGII, bG; 48 h, 45° C., pH 5.0
Procedure: (§3) The performance of the purified recombinant cellobiohydrolases was evaluated in the hydrolysis studies with purified T. reesei enzymes. Hydrolysis was carried out with controlled mixtures of purified enzymes on several pre-treated substrates. […] In addition, pure T. reesei cellulases (purified as described by Suurnäkki et al., 2000) were used in the enzyme mixtures. The cellobiohydrolases used in the experiment were:
(§4) Each CBH/Cel7 to be tested (dosage 14.5 mg/g dry matter of substrate) was used either together with EGII/Cel5A of T. reesei (3.6 mg/g) or with a mixture containing T. reesei EGI/Cel7B (1.8 mg/g), EGII/Cel5A (1.8 mg/g), xylanase pI 9 (Tenkanen et al. 1992) (5000 nkat/g) and acetyl xylan esterase (AXE) (Sundberg and Poutanen, 1991) (250 nkat/g). All mixtures were supplemented with additional β-glucosidase from a commercial enzyme preparation Novozym 188 (176 nkat/g d.w.). Triplicate tubes containing the enzyme mixture and 10 mg (dry matter)/ml of the substrate suspended in 0.05 M sodium acetate were incubated in mixing by magnetic stirring at 45° C. for 48 h. Reference samples with inactivated enzymes and corresponding substrates were also prepared. The release of hydrolysis products was measured as reducing sugars with DNS method using glucose as standard (Table 30).
Washed steam pre-treated spruce fibre (impregnation with 3% w/w SO2 for 20 min, followed by steam pre-treatment at 215° C. for 5 min), dry matter 25.9% (SPRUCE).

[5] = Hydrolysis with CBH enzyme mixtures, Avicel; type: biochemical; conditions: additional enzymes EGII, bG; 48 h, 45° C., pH 5.0
Procedure: as §3, §4
Crystalline cellulose (Avicel)

[6] = Hydrolysis with CBH enzyme mixtures, willow; type: biochemical; conditions: additional enzymes EGII, bG, 48 h, 45° C., pH 5.0
Procedure: as §3, §4
Washed steam pre-treated willow fibre (pre-treatment for 14 min at 210° C.), dry matter 23.0% (WILLOW).

[7] = Hydrolysis with CBH enzyme mixtures, corn stover; type: biochemical; conditions: additional enzymes EGII, bG, 48 h, 45° C., pH 5.0
Procedure: as §3, §4
Washed wet oxidized corn stover fibre (WOCS).

[8] = with CBHI and CBHII of T. reesei
[9] = with T. aurantiacus Cel7A + Tr CBD

B1: EGI: endoglucanase I (Cel7B) of T. reesei, reference enzyme (protein, UniProt P07981 23-459, looked up)
Endoglucanase EG-1: QQPGTSTPEVHPKLTTYKCTKSGGCVAQDTSVVLDWNYRWMHDANYNSCTVNGGVNTTLCPDEATCGKNCFIEGVDYAASGVTTSGSSLTMNQYMPSSSGGYSSVSPRLYLLDSDGEYVMLKLNGQELSFDVDLSALPCGENGSLYLSQMDENGGANQYNTAGANYGSGYCDAQCPVQTWRNGTLNTSHQGFCCNEMDILEGNSRANALTPHSCTATACDSAGCGFNPYGSGYKSYYGPGDTVDTSKTFTIITQFNTDNGSPSGNLVSITRKYQQNGVDIPSAQPGGDTISSCPSASAYGGLATMGKALSSGMVLVFSIWNDNSQYMNWLDSGNAGPCSSTEGNPSNILANNPNTHVVFSNIRWGDIGSTTNSTAPPPPPASSTTFSTTRRSSTTSSSPSCTQTHWGQCGGIGYSGCKTCTSGTTCQYSNDYYSQCL
Hydrolysis products as reducing sugars, SPRUCE [1, 8]: 3.5 mg/mL
Hydrolysis products as reducing sugars, SECS [2, 8]: 4.6 mg/mL
Hydrolysis products as reducing sugars, SECS [2, 9]: 4.2 mg/mL

B2: EGII: endoglucanase II (Cel5A) of T. reesei, reference enzyme (protein, UniProt P07982 22-418, looked up)
Endoglucanase EG-II: QQTVWGQCGGIGWSGPTNCAPGSACSTLNPYYAQCIPGATTITTSTRPPSGPTTTTRATSTSSSTPPTSSGVRFAGVNIAGFDFGCTTDGTCVTSKVYPPLKNFTGSNNYPDGIGQMQHFVNEDGMTIFRLPVGWQYLVNNNLGGNLDSTSISKYDQLVQGCLSLGAYCIVDIHNYARWNGGIIGQGGPTNAQFTSLWSQLASKYASQSRVWFGIMNEPHDVNINTWAATVQEVVTAIRNAGATSQFISLPGNDWQSAGAFISDGSAAALSQVTNPDGSTTNLIFDVHKYLDSDNSGTHAECTTNNIDGAFSPLATWLRQNNRQAILTETGGGNVQSCIQDMCQQIQYLNQNSDVYLGYVGWGAGSFDSTYVLTETPTSSGNSWTDTSLVSSCLARK
Hydrolysis products as reducing sugars, SPRUCE [1, 8]: 3.8 mg/mL
Hydrolysis products as reducing sugars, SPRUCE [1, 9]: 3.2 mg/mL
Hydrolysis products as reducing sugars, SECS [2, 8]: 3.5 mg/mL

B3: Ct EG_54: endoglucanase of Chaetomium thermophilum ALKO4261, gene Ct cel7B, amino acid SEQ ID NO: 16 (protein)
chain: MTRKFALVPLLLGLASAQKPGNTPEVHPKITTYRCSHRQGCRPETNYIVLDSLTHPVHQLNSNANCGDWGNPPPRSVCPDVETCAQNCIMEGIQDYSTYGVTTSGSSLRLKQIHQGRVTSPRVYLLDKTEQQYEMMRLTGFEFTFDVDTTKLPCGMNAALYLSEMDATGARSRLNPGGAYYGTGYCDAQCFVTPFINGIGNIEGKGSCCNEMDIWEANSRSQSIAPHPCNKQGLYMCSGQECEFDGVCDEWGCTWNPYKVNVTDYYGRGPQFKVDTTRPFTVITQFPADQNGKLTSIHRMYVQDGKLIEAHTVNLPGYPQVNALNDDFCRATGAATKYLELGATAGMGEALRRGMVLAMSIWWDESGFMNWLDSGESGPCNPNEGNPQNIRQIEPEPEVTYSNLRWGEIGSTYKHNLKGGWTGRN
pI of the purified protein [3]: ~5.5

B4: Ta Cel7A + Ct CBD: Thermoascus aurantiacus Cel7A fused to linker and CBD of Chaetomium thermophilum Cel7A, SEQ ID NO: 30 (protein)
chain: MYQRALLFSFFLAAARAQQAGTVTAENHPSLTWQQCSSGGSCTTQNGKVVIDANWRWVHTTSGYTNCYTGNTWDTSICPDDVTCAQNCALDGADYSGTYGVTTSGNALRLNFVTQSSGKNIGSRLYLLQDDTTYQIFKLLGQEFTFDVDVSNLPCGLNGALYFVAMDADGGLSKYPGNKAGAKYGTGYCDSQCPRDLKFINGQANVEGWQPSANDPNAGVGNHGSCCAEMDVWEANSISTAVTPHPCDTPGQTMCQGDDCGGTYSSTRYAGTCDPDGCDFNPYRQGNHSFYGPGQIVDTSSKFTVVTQFITDDGTPSGTLTEIKRFYVQNGKVIPQSESTISGVTGNSITTEYCTAQKAAFGDNTGFFTHGGLQKISQALAQGMVLVMSLWDDHAANMLWLDSTYPTDADPDTPGVARGTCPTTSGVPADVESQYPNSYVIYSNIKVGPIGSTVPGLDGSNPGNPTTTVVPPASTSTSRPTSSTSSPVSTPTGQPGGCTTQKWGQCGGIGYTGCTNCVAGTTCTQLNPWYSQCL
Hydrolysis products as reducing sugars, SPRUCE [4]: 3.7 mg/mL
Hydrolysis products as reducing sugars, Avicel [5]: 4.9 mg/mL
Hydrolysis products as reducing sugars, WILLOW ([6]; EGI, XYL, AXE): 5.6 mg/mL
Hydrolysis products as reducing sugars, WILLOW [6]: 3.7 mg/mL
Hydrolysis products as reducing sugars, WOCS ([7]; EGI, XYL, AXE): 7.2 mg/mL
Hydrolysis products as reducing sugars, WOCS [7]: 4.6 mg/mL
